Assay results published in US6794147 (Pfizer, dated 2004).

Target: T1, mouse MLH1 (endogenous, mouse testicular lysates) (mouse, UniProt Q9JK91 1-760)
T1 construct: Endogenous protein immunoprecipitated from mouse testicular lysates
T1 sequence (looked up): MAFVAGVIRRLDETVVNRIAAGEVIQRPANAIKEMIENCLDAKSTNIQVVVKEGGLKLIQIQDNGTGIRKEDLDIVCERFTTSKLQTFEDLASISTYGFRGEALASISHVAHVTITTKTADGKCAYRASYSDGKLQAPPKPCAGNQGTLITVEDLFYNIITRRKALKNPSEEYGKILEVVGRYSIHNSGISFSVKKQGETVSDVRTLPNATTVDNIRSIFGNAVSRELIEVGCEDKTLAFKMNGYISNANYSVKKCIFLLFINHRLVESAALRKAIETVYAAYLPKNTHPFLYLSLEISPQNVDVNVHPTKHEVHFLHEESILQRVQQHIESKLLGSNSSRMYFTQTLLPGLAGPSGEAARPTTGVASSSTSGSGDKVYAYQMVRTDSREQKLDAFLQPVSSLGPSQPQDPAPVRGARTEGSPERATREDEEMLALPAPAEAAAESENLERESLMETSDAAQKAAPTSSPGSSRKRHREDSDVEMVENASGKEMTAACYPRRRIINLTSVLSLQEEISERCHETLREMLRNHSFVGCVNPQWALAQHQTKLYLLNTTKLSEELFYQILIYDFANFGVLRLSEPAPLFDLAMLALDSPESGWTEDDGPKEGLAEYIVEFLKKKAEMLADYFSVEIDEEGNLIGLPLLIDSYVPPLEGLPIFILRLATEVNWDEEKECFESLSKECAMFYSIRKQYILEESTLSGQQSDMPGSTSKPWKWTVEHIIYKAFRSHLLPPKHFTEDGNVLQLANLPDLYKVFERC
Test: co-immunoprecipitation from mouse testicular lysates with anti-RAD51 antibody, Western blotting

binding result: no binding
B1: mouse RAD51 (endogenous, mouse testicular lysates) (other, UniProt Q08297 2-339, looked up)
chain: AMQMQLEASADTSVEEESFGPQPISRLEQCGINANDVKKLEEAGYHTVEAVAYAPKKELINIKGISEAKADKILTEAAKLVPMGFTTATEFHQRRSEIIQITTGSKELDKLLQGGIETGSITEMFGEFRTGKTQICHTLAVTCQLPIDRGGGEGKAMYIDTEGTFRPERLLAVAERYGLSGSDVLDNVAYARGFNTDHQTQLLYQASAMMVESRYALLIVDSATALYRTDYSGRGELSARQMHLARFLRMLLRLADEFGVAVVITNQVVAQVDGAAMFAADPKKPIGGNIIAHASTTRLYLRKGRGETRICKIYDSPCLPEAEAMFAINADGVGDAKD
notes: Endogenous protein immunoprecipitated from mouse testicular lysates
